B1: CDKN1A (parent)
chain: GRKRRQTSMTDFYHSKRRLIFSKR

Variants of: B1
Assay: protein stability index of a GFP-peptide fusion (GPS, HEK-293T) (PSI 1-6); higher = more stable
Settings: c terminus: a fixed tail appended
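Further: lentivirally expressed fusions sorted by FACS into six bins by GFP to DsRed ratio, PSI derived from sequencing read proportions per bin multiplied by bin number.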

| Variant | protein stability index |
| --- | --- |
| M9P | 2.69 |
| M9E | 2.27 |
| M9R | 3.05 |
| M9S | 3.08 |
| M9H | 3.21 |
| M9V | 2.96 |
| M9L | 2.98 |
| M9W | 3.37 |
| M9C | 2.34 |
| M9T | 1.91 |
| M9D | 4.34 |
| M9A | 2.66 |
| M9F | 2.6 |
| M9I | 3.23 |
| M9K | 2.62 |
| M9N | 3.29 |
| M9G | 3.98 |
| K3Q | 2.98 |
| K3A | 3.12 |
| K3Y | 5.28 |
| K3F | 2.4 |
| K3H | 3.57 |
| K3T | 2.5 |
| K3I | 2.76 |

| Variant | protein stability index |
| --- | --- |
| K3N | 2.73 |
| K3V | 2.83 |
| K3C | 3.54 |
| K3W | 2.56 |
| K3M | 2.76 |
| K3E | 2.19 |
| K3D | 3.2 |
| K3S | 3.96 |
| K3P | 2.16 |
| K3L | 3.18 |
| F12C | 2.3 |
| F12K | 2.36 |
| F12P | 3.34 |
| F12Y | 2.17 |
| F12Q | 2.46 |
| F12V | 3.38 |
| F12A | 3.27 |
| F12S | 2.42 |
| F12G | 3.04 |
| F12T | 2.78 |
| F12D | 3.14 |
| F12E | 3.15 |
| F12R | 2.73 |
| F12H | 1.61 |

| Variant | protein stability index |
| --- | --- |
| K23D | 2.95 |
| K23Q | 1.58 |
| K23S | 2.78 |
| K23N | 2.3 |
| K23T | 3.3 |
| K23F | 3.02 |
| K23W | 2.87 |
| K23A | 3.19 |
| K23P | 2.48 |
| K23Y | 2.74 |
| K23L | 1.96 |
| Y13V | 2.79 |
| Y13H | 3.22 |
| Y13D | 4.24 |
| Y13W | 2.7 |
| Y13F | 3.27 |
| Y13R | 3.93 |
| Y13K | 2.66 |
| Y13C | 3.2 |
| Y13E | 3.73 |
| Y13S | 3.57 |
| Y13P | 3.53 |
| Y13N | 3.25 |
| Y13T | 3.69 |

| Variant | protein stability index |
| --- | --- |
| Y13Q | 3.92 |
| Y13M | 2.33 |
| Y13G | 3.02 |
| L19F | 2.88 |
| L19R | 2.77 |
| L19W | 3.25 |
| L19C | 2.81 |
| L19M | 3.98 |
| L19N | 3 |
| L19P | 2.14 |
| L19S | 3.31 |
| L19I | 2.65 |
| L19Y | 3.91 |
| L19K | 3.86 |
| L19Q | 3.85 |
| L19G | 2.71 |
| L19H | 3.78 |
| H14N | 3.62 |
| H14P | 4.57 |
| H14L | 3.02 |
| H14M | 3.3 |
| H14E | 3.45 |
| H14Y | 4 |
| H14W | 2.08 |

| Variant | protein stability index |
| --- | --- |
| H14I | 2.72 |
| H14R | 3.52 |
| H14Q | 3.39 |
| H14C | 2.43 |
| H14F | 2.96 |
| H14S | 2.34 |
| F21A | 2.4 |
| F21G | 3.13 |
| F21C | 3.58 |
| F21H | 3 |
| F21S | 3.66 |
| F21I | 3.27 |
| F21L | 3.08 |
| F21N | 3.63 |
| F21P | 1.99 |
| F21T | 3.22 |
| F21Y | 3.38 |
| F21M | 3.48 |
| F21D | 3.79 |
| F21K | 3.14 |
| F21E | 2.62 |
| F21W | 3.45 |
| G1S | 3.84 |
| G1Q | 3.03 |

| Variant | protein stability index |
| --- | --- |
| G1V | 2.06 |
| G1W | 3.87 |
| G1K | 3.34 |
| G1R | 3.87 |
| G1M | 2.88 |
| G1Y | 2.99 |
| G1T | 2.06 |
| G1P | 3.63 |
| G1N | 2.55 |
| G1L | 2.86 |
| R4P | 3.12 |
| R4K | 3.46 |
| R4H | 2.98 |
| R4T | 3.95 |
| R4E | 3.62 |
| R4Y | 3.36 |
| R4W | 3.56 |
| R4S | 2.85 |
| R4D | 3.24 |
| R4N | 4.63 |
| R4M | 2.77 |
| R4C | 2.73 |
| R4A | 2.39 |
| R4G | 3.58 |

| Variant | protein stability index |
| --- | --- |
| R5T | 3.64 |
| R5I | 3.03 |
| R5F | 2.64 |
| R5H | 3.17 |
| R5G | 2.4 |
| R5Y | 3.17 |
| R5A | 2.74 |
| R5S | 2.44 |
| R5L | 3.53 |
| R5Q | 2.87 |
| R5N | 2.74 |
| R5K | 2.57 |
| R2A | 2.05 |
| R2D | 2.78 |
| R2W | 2.53 |
| R2N | 2.74 |
| R2L | 2.6 |
| R2M | 3.79 |
| R2E | 4.5 |
| R2Y | 2.22 |
| R2S | 3.05 |
| R2F | 3.25 |
| R2V | 3.22 |
| R2K | 3.08 |

| Variant | protein stability index |
| --- | --- |
| R2T | 2.8 |
| R2H | 2.33 |
| R2C | 3.93 |
| R2G | 3.19 |
| S15L | 1.78 |
| S15F | 3.02 |
| S15T | 2.44 |
| S15R | 3.43 |
| S15M | 1.92 |
| S15P | 2.59 |
| S15W | 3.71 |
| S15A | 2.47 |
| S15C | 2.1 |
| S15N | 3.16 |
| S15Y | 3.78 |
| T7L | 2.79 |
| T7H | 2.67 |
| T7N | 2.48 |
| T7S | 2.71 |
| T7Q | 2.12 |
| T7M | 2.6 |
| T7Y | 2.65 |
| T7E | 2.22 |
| T7D | 2.1 |

| Variant | protein stability index |
| --- | --- |
| T7A | 1.97 |
| T7C | 2.87 |
| T7I | 2.38 |
| T7W | 2.36 |
| T7K | 3.09 |
| Q6E | 2.73 |
| Q6H | 3.62 |
| Q6Y | 2.67 |
| Q6I | 2.79 |
| Q6T | 3.34 |
| Q6K | 2.55 |
| Q6W | 2.47 |
| Q6R | 2.4 |
| Q6M | 2.04 |
| Q6D | 2.1 |
| Q6C | 3.21 |
| Q6S | 2.25 |
| Q6V | 2.38 |
| Q6G | 2.76 |
| Q6A | 2.06 |
| R17I | 2.97 |
| R17F | 2.19 |
| R17E | 3.75 |
| R17M | 3.08 |

| Variant | protein stability index |
| --- | --- |
| R17V | 4.34 |
| R17S | 3.19 |
| R17Q | 3.46 |
| R17C | 2.76 |
| R17H | 2.64 |
| R17W | 2.28 |
| R17P | 2.62 |
| R17K | 3.87 |
| R17D | 3.57 |
| R17A | 2.13 |
| R17G | 2.04 |
| R17N | 3.38 |
| R17T | 3.02 |
| R24E | 2.67 |
| R24M | 2.17 |
| R24C | 3.93 |
| R24K | 2.24 |
| R24G | 3.52 |
| R24L | 3.19 |
| R24H | 2.4 |
| R24F | 2.24 |
| R24D | 3.29 |
| R24A | 3.13 |
| R24I | 2.91 |

| Variant | protein stability index |
| --- | --- |
| D11Q | 2.89 |
| D11M | 3.13 |
| D11Y | 2.07 |
| D11S | 3.06 |
| D11F | 2.51 |
| D11V | 2.44 |
| D11H | 1.82 |
| D11L | 2.29 |
| D11A | 2.37 |
| D11T | 2.2 |
| D11K | 2.77 |
| D11N | 2.4 |
| D11R | 3.33 |
| D11P | 3.34 |
| D11I | 2.12 |
| D11W | 2.21 |
| S8H | 4.01 |
| S8T | 3.3 |
| S8Q | 2.69 |
| S8K | 3.4 |
| S8M | 2.68 |
| S8L | 3.4 |
| S8E | 2.74 |
| S8F | 3.4 |

| Variant | protein stability index |
| --- | --- |
| S8C | 3.59 |
| S8Y | 2.35 |
| S8R | 2.72 |
| S8P | 1.76 |
| S8I | 2.6 |
| S8D | 2.46 |
| S8A | 2.41 |
| K16A | 3.51 |
| K16Q | 2.83 |
| K16I | 3.82 |
| K16F | 2.28 |
| K16R | 4.25 |
| K16Y | 2.93 |
| K16E | 3.76 |
| K16G | 2.62 |
| K16W | 3.97 |
| K16P | 2.07 |
| K16H | 2.96 |
| K16C | 3.39 |
| K16N | 2.99 |
| K16T | 4.09 |
| K16V | 3.12 |
| S22D | 2.17 |
| S22I | 2.53 |

| Variant | protein stability index |
| --- | --- |
| S22M | 4.04 |
| S22A | 3.99 |
| S22C | 2.35 |
| S22T | 2.87 |
| S22N | 2.57 |
| S22R | 2.79 |
| S22Q | 3.09 |
| T10K | 2.52 |
| T10C | 3.68 |
| T10W | 2.16 |
| T10F | 3.46 |
| T10A | 1.75 |
| T10M | 2.38 |
| T10G | 2.85 |
| T10Y | 2.53 |
| T10L | 2.45 |
| T10P | 2.48 |
| T10R | 2.39 |
| T10H | 2.93 |
| T10S | 2.54 |
| R18M | 1.86 |
| R18T | 2.45 |
| R18N | 2.76 |
| R18D | 2.48 |

| Variant | protein stability index |
| --- | --- |
| R18P | 2.11 |
| R18Q | 1.47 |
| R18C | 2.37 |
| R18K | 2.64 |
| R18H | 2.15 |
| R18A | 3.35 |
| R18V | 2.93 |
| R18G | 2.8 |
| R18F | 2.78 |
| R18S | 2.77 |
| R18L | 3.13 |
| I20S | 2.5 |
| I20T | 2.86 |
| I20F | 3.1 |
| I20K | 2.99 |
| I20W | 2.3 |
| I20N | 3.51 |
| I20M | 2.86 |
| I20C | 2.93 |
| I20R | 2.15 |
| I20A | 3.46 |
| I20D | 2.84 |
